From paper PMC13156308

What was measured:
[1] = target: full-length strep-tagged POLD3 (human) (UniProt Q15054); test: BLI; POLD3 immobilised on Streptavidin (SAX) biosensors, BLItz, 1x PBS and 0.02% Tween
GST-tagged MCM2 (human) = GST-tagged MCM2 (human) (UniProt P49736); test: BLI; MCM2 immobilised on Anti-GST biosensors, BLItz, 1x PBS and 0.02% Tween; analyte 0-50.0 nM
GST-tagged MCM2 (human), sequence (P49736 whole entry): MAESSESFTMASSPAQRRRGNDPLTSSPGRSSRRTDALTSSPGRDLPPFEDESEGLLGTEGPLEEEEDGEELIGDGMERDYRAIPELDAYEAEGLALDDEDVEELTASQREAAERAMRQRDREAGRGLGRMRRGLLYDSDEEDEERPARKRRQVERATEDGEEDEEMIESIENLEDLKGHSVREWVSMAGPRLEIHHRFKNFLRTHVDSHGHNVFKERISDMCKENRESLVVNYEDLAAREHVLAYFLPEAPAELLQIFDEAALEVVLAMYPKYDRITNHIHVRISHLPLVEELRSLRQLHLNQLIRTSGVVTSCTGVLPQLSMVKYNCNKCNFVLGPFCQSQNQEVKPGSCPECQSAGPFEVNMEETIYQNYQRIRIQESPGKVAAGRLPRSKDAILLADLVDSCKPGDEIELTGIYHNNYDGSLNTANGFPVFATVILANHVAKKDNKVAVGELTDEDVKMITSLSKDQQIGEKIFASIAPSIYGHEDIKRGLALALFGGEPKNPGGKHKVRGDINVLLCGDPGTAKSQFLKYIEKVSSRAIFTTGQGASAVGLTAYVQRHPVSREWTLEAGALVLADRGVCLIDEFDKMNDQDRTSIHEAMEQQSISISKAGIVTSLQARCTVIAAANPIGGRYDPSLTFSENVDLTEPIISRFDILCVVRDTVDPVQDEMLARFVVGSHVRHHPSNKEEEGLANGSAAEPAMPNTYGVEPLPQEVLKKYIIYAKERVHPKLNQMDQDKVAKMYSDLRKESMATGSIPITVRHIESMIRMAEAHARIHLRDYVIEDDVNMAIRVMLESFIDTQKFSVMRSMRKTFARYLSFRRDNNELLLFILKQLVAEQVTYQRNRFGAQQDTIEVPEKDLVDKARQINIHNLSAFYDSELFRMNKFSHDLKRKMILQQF

full-length strep-tagged POLD3 (human), sequence (Q15054 whole entry): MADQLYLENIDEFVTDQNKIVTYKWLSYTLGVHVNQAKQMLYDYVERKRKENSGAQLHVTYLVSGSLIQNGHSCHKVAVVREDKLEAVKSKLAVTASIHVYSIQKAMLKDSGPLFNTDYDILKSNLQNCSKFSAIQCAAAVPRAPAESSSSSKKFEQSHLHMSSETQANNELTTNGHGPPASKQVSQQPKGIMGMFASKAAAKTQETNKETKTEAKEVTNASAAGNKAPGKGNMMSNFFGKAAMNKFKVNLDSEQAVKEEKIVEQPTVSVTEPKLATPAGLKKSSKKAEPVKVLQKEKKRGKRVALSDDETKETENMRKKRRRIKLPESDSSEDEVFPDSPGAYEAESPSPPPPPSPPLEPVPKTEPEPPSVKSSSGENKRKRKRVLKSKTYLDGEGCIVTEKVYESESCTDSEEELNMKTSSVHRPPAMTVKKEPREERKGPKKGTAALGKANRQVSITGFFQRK

histone (H3.1-H4)2 tetramer (from UniProt P68431 1-136; P62805 1-103) (complex; other documents disagree on this pair)
Kd [1]: 2.7 nM
Kd (GST-tagged MCM2 (human)): 2.17 nM
